Blank lines part the entries; values can stand above or below the binder they belong to.
Assays:
[1] = biological target: T1, rhPSMA, extracellular part of human PSMA (residues 44-750) with its native N-terminus (human, UniProt Q04609 44-750, N-glycosylated (made in Schneider S2 insect cells)); assay: SPR (BIAcore), rhPSMA on chip
T1 construct: range 44-750; No tag; also called wild-type rhPSMA; rhGCPII
Procedure: Surface plasmon resonance (SPR) spectroscopy was performed on a BIAcore 2000 instrument (BIAcore) following published procedures (Gebauer, M. et al. [2013] J. Mol. Biol. 425:780-802; De Crescenzo, G. et al. [2008] J. Mol. Recognit. 21:256-266). rhPSMA (1 nM in 10 mM Na-acetate pH 5.0) was immobilized on a CM5 sensor chip (BIAcore) using an amine coupling kit (GE Healthcare, BR100050), resulting in around 500 resonance units (ΔRU). The purified Anticalins were diluted in HEPES buffered saline (HBS; 10 mM HEPES/NaOH, 150 mM NaCl, pH 7.4) with 0.005% v/v Tween 20 to concentrations from 64-2 nM. The instrument was operated using the same running buffer at a flow rate of 25 μL/min. […] Regeneration of the sensor chip was achieved by up to four injections of 10 μL glycine/HCl, pH 2.0. The sensorgrams were corrected by double subtraction of the corresponding signals measured for the in-line control blank channel and an averaged baseline determined from three buffer blank injections³¹. Kinetic parameters were determined by data fitting using a 1:1 Langmuir binding model with BIAevaluation software version 4.1 (BIAcore). […]

[2] = biological target: T1, rhPSMA, extracellular part of human …; assay: SPR (BIAcore), rhPSMA on chip, Anticalin as analyte
Procedure: Surface plasmon resonance (SPR) spectroscopy was performed on a BIAcore 2000 instrument (BIAcore) following published procedures (Gebauer, M. et al. [2013] J. Mol. Biol. 425:780-802; De Crescenzo, G. et al. [2008] J. Mol. Recognit. 21:256-266). rhPSMA (1 nM in 10 mM Na-acetate pH 5.0) was immobilized on a CM5 sensor chip (BIAcore) using an amine coupling kit (GE Healthcare, BR100050), resulting in around 500 resonance units (ΔRU). The purified Anticalins were diluted in HEPES buffered saline (HBS; 10 mM HEPES/NaOH, 150 mM NaCl, pH 7.4) with 0.005% v/v Tween 20 to concentrations from 64-2 nM. The instrument was operated using the same running buffer at a flow rate of 25 μL/min. […] Regeneration of the sensor chip was achieved by up to four injections of 10 μL glycine/HCl, pH 2.0. The sensorgrams were corrected by double subtraction of the corresponding signals measured for the in-line control blank channel and an averaged baseline determined from three buffer blank injections³¹. Kinetic parameters were determined by data fitting using a 1:1 Langmuir binding model with BIAevaluation software version 4.1 (BIAcore).
Several combinations of mutations occurring in the PSMA-specific Lcn2 variants A3A5.1 (carrying 5 new mutations) and A3A5.7 (carrying 4 new mutations) were prepared in order to investigate the relevance of the mutations that were found during affinity maturation for improved PSMA binding with the aim to create a combined Anticalin variant suitable for further protein engineering studies. A first combination, containing solely the mutations located in the loop regions of the Anticalins, was carried out by introducing the following mutations into the sequence of A3A5 (see SEQ ID NO:2): (i) a Y at position 71 as also present in A3A5.1, (ii) an N at position 74 as also present in A3A5.7, (iii) a D at position 103 as also present in A3A5.1. This triple substitution variant, termed A3A5.8, was obtained by gene synthesis, cloned and subsequently expressed (as described in Example 1).

[3] = biological target: T2, full-length human PSMA expressed on cells (HEK293T/PSMA transfectants, LNCaP) (human, UniProt Q04609 1-750); assay: immunofluorescence microscopy on fixed, permeabilized cells
T2 construct: whole, on cells; Transfected in HEK293T/17 cells, endogenous in LNCaP cells; In the Western blot it stood in SDS cell lysates; also called full length wild-type PSMA; cellular PSMA
Procedure: PSMA-positive and -negative cells grown on cover slides coated with gelatin (0.1% w/v) were washed twice with PBS, fixed with 4% w/v paraformaldehyde in PBS for 15 min, permeabilized by treatment with PBS containing 0.1% v/v Triton X-100 for 15 min, and incubated in the blocking solution (5% w/v non-fat dried milk/PBS) for 30 min at room temperature (RT). Cells were then incubated with 0.5 μM Anticalin in 5% w/v non-fat dried milk/PBS for 45 min at RT followed by incubation with a Strep-tag II specific monoclonal antibody StrepMAB-Immo (2 μg/mL in PBS/0.05% Tween-20; IBA, 2-1517) for 1 h at RT. An anti-mouse secondary antibody conjugated to Alexa Fluor 488 (5 μg/mL in PBS/0.05% Tween-20; Life Technologies, A11029) served as detection reagent and was applied for 1 h at RT. All incubation steps were interspersed by extensive washing with PBS/0.05% Tween-20. […]
For immunofluorescence microscopy, the different cell lines were fixed with paraformaldehyde on glass coverslips and permeabilized. Following a blocking step, cells were probed with the Anticalin A3A5, which was detected by a murine antibody (StrepMAB-Immo) recognizing the Strep-tag II and an Alexa Fluor 488-labeled anti-mouse secondary antibody. […] Also, when wild-type Lcn2 was used instead of the Anticalin A3A5, no fluorescent staining was detected. […]

[4] = biological target: T1, rhPSMA, extracellular part of human …; assay: ELISA on coated rhPSMA; G4 taken as the sixth candidate
Procedure: 50 μL of rhPSMA (5 μg/mL in TBS) was directly adsorbed onto the surface of a MaxiSorp 96-well plate overnight at 4° C. Similarly, ovalbumin-coated wells (10 μg/mL in PBS) were used as a negative control. After blocking with 250 μL of 2% w/v BSA for 1 h at room temperature, 50 μL from a serial Anticalin dilution in PBS was added to each well and incubated for 1 h. The plates were washed three times and bound Anticalins were detected with StrepTactin-AP as described further above. The data were analyzed using Prism 5 software (GraphPad) and absorption values (A) were fitted according to the formula ΔA=Aₘₐₓ·[Lₜₒₜ]/(KD+[Lₜₒₜ]) with the concentration of the applied lipocalin variant [Lₜₒₜ] and the dissociation constant KD.
Specific binding activities of selected Anticalins toward rhPSMA as well as apparent affinity constants were initially determined by ELISA in 96-well Maxisorp plates coated with the recombinant wild-type PSMA protein. Anticalins were applied in a dilution series and detected via the C-terminal Strep-tag II. Five of the six analyzed Anticalin candidates specifically recognized PSMA with apparent dissociation constants (K₀ values) ranging from 6 to 42 nM, for A3 and H3, respectively (FIG. 4). For comparison, binding activity towards ovalbumin, which served as a negative control, was negligible. The G4 clone was later found to bind the anti-FLAG antibody (not shown).

T1 sequence (Q04609 44-750 limits assumed): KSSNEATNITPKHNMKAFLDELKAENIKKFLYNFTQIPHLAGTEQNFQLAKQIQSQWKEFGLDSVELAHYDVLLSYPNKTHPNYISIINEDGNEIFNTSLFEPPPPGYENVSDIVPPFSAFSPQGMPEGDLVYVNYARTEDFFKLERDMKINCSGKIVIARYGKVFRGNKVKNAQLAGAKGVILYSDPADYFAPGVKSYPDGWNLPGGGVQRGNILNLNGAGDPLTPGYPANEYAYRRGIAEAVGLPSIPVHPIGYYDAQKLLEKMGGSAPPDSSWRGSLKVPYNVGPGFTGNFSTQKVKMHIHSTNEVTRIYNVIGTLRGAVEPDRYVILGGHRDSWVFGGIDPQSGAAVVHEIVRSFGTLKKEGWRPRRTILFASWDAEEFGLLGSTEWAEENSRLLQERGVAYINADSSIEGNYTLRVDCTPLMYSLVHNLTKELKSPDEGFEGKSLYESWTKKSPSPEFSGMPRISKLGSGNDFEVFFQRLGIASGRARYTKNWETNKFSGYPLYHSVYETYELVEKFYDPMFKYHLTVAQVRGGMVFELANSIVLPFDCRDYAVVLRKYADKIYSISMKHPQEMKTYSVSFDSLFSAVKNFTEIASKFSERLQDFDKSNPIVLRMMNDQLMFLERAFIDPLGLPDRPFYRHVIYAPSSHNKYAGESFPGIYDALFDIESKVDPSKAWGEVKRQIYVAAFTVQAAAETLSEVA
T2 sequence (Q04609 whole entry): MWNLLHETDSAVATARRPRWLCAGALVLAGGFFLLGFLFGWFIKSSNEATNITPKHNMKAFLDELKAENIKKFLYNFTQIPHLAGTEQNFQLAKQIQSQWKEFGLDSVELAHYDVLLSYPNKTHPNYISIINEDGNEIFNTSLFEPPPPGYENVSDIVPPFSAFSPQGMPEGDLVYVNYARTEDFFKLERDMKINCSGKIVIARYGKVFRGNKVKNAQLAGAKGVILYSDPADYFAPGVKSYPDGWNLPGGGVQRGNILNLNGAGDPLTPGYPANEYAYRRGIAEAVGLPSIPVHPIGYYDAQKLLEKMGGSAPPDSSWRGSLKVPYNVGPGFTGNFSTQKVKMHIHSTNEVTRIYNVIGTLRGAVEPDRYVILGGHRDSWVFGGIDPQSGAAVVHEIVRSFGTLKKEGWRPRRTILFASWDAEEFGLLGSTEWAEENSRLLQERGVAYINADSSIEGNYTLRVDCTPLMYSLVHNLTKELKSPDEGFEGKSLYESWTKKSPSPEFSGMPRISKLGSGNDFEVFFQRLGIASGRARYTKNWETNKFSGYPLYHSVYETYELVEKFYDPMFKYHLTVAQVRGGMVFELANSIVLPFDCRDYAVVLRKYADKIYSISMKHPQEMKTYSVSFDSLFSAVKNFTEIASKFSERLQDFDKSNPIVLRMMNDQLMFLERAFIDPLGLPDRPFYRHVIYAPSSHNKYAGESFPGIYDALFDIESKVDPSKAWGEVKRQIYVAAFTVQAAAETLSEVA

fold improvement of KD against A3A5 [1]: ~2 fold
Kd [2]: 1.4 nM
koff [2]: 0.00015 s⁻¹
kon [2]: 110000 M⁻¹ s⁻¹
B1: Anticalin A3A5.8 (designed binder)
chain: QDSTSDLIPAPPLSKVPLQQNFQDNQFHGKWYVVGLAGNVILREDKDPYKMSATIYELKEDKSYNVTNVRYYLNKCYYTIATFVPGSQPGEFTLGTIKSGPGDTSGLVRVVSTNYNQHAMVFFKEVQQNREWFIITLYGRTKELTSELKENFIRFSKSLGLPENHIVFPVPIDQCIDG
notes: A3A5 with Y at 71, N at 74 and D at 103; also called variant A3A5.8; not shown: C-terminal Strep-tag II

binding result [3]: no binding (tested: 0.5 µM)
B2: wild-type Lcn2 (other)
chain: QDSTSDLIPAPPLSKVPLQQNFQDNQFQGKWYVVGLAGNAILREDKDPQKMYATIYELKEDKSYNVTSVLFRKKKCDYWIRTFVPGCQPGEFTLGNIKSYPGLTSYLVRVVSTNYNQHAMVFFKKVSQNREYFKITLYGRTKELTSELKENFIRFSKSLGLPENHIVFPVPIDQCIDG
notes: Negative control in microscopy and flow cytometry; also called wt Lcn2; lipocalin 2

binding result [4]: no binding
B3: Anticalin candidate G4 (designed binder)
chain: QDSTSDLIPAPPLSKVPLQQNFQDNQFHGKWYVVGHAGNMLLREDKDPSKMVATIYELKEDKSYNVTQVDFGTKKCFYAINTFVPGSQPGEFTLGHIKSNPGMTSMLVRVVSTNYNQHAMVFFKAVLQNREGFLITLYGRTKELTSELKENFIRFSKSLGLPENHIVFPVPIDQCIDG
notes: also called G4 clone; not shown: C-terminal Strep-tag II

From patent US20180318451A1 (published 2018)
